Experimental data from the DeepSol protein solubility set.

assay: soluble on expression in E. coli; label from the status in PepcDB or PDB records

**Q.** Which “soluble on expression in E. coli” value does the source give for “MLRAKVRRIALANQKGGVGKTTTAINLAAYLARLGKRVLLVDLDPQGNATSGLGVRAERGVYHLLQGEPLEGLVHPVDGFHLLPATPDLVGATVELAGAPTALREALRDEGYDLVLLDAPPSLSPLTLNALAAAEGVVVPVQAEYYALEGVAGLLATLEEVRAGLNPRLRLLGILVTMYDGRTLLAQQVEAQLRAHFGEKVFWTVIPRNVRLAEAPSFGKTIAQHAPTSPGAHAYRRLAEEVMARVQEAGSHHHHHH” here?
**A.** soluble

**Q.** For “MKSSDRLFTGRSENYSKFRPSYPVGIVKMLTDKYGLKKEMVIADIGCGTGILARMFLENGNKVYCIDPNGEMLKFAKDELSSFGNAIIVRGSAENTGLEDHSVNVISAGQSFHWFDTDKAKVEFRRILTAPYMVVLIWNDRDIDDGFTAEYEKIVSAYGKNYQGTGSTGLPPDTIPQFFNWAYDYYQYQNYQELDLEGLKGRYLSTFYSITQEYPKFQAAMKALETAFNAFSVDGKVRIRYITKVFVGKLNPLEHHHHHH”, which “soluble on expression in E. coli” value is on record?
**A.** soluble

**Q.** Which “soluble on expression in E. coli” value does the source give for “MARKRIITPEKKELIRNLISEYNITSAKDLQEALKDLLGDTIQNMLEAELDEHLGYEKYESTEEAKSNYRNGYTSKTLKSSVGQVEIDIPRDRNAEFEPKIVPRYKRDISEIENKIIAMYARGMSTREINEQIQEIYGFEVSAEMVSKITDKILPEIEEWQKRPLGEVIR” here?
**A.** soluble

**Q.** For “MGNNTIGARKSTTSKFWKCRSCIASRTTESRNNSIIQQRRNFIIRTKKEIPFPKRGASKDSCGSCHNQKNLIVCHLFLFKNHKKLFF”, which “soluble on expression in E. coli” value is on record?
**A.** not soluble

**Q.** Which “soluble on expression in E. coli” value does the source give for “MASRAPKEVPLCPLMTDGETRNVTDLPGPTNWPLLGSLLEIFWKGGLKKQHDTLAEYHKKYGQIFRMKLGSFDSVHLGSPSLLEALYRTESAHPQRLEIKPWKAYRDHRNEAYGLMILEGQEWQRVRSAFQKKLMKPVEIMKLDKKINEVLADFLERMDELCDERGRIPDLYSELNKWSFESICLVLYEKRFGLLQKETEEEALTFITAIKTMMSTFGKMMVTPVELHKRLNTKVWQAHTLAWDTIFKSVKPCIDNRLQRYSQQPGADFLCDIYQQDHLSKKELYAAVTELQLAAVETTANSLMWILYNLSRNPQAQRRLLQEVQSVLPDNQTPRAEDLRNMPYLKACLKESMRLTPSVPFTTRTLDKPTVLGEYALPKGTVLTLNTQVLGSSEDNFEDSHKFRPERWLQKEKKINPFAHLPFGIGKRMCIGRRLAELQLHLALCWIIQKYDIVATDNEPVEMLHLGILVPSRELPIAFRPR” here?
**A.** soluble

**Q.** Which “soluble on expression in E. coli” value does the source give for “MPGAAAKGSELSERIEGFVETLKRGGGQRSSEDMARETLGLLRRLITDHHWNNAGDLMDLIRREGRRMTAAQPSETTVGNMVRRVLKIIREEYGRLHGRSDESDQQESLHKLLTSGGLSEDFSFHFAPLKANIIEAINELLVELEGTMENIAAQALEHIHSNEVIMTIGYSRTVEAFLKEAARKRKFHVIVAECAPFCQGHEMAVNLSKEGIETTVMTDAAIFAVMSRVNKVIIGTKTILANGSLRAVAGTHTLALAAKHHSTPLIVCAPMFKLSPQFPSEEDSFHKFVAPEEVLPFTEGDILEKVSVHCPVFDYVPPDLITLFISNIGGNAPSYIYRLMSELYHPDDHVL” here?
**A.** not soluble

**Q.** Which “soluble on expression in E. coli” value does the source give for “SGSNETLPDNFGKGGWKICFKIEPPATLGNGMLKISFHSDYNRKPHPDDIVEETIKDMWKRRKEVNPKMWNALKFRVDSYSTFHAQGASVVKLNLGLTDYASYQGSGSLASPLTFFQSPEEGAPERHLPLSLGNAGIVLTSDNFIILLERSEQVGEGVGRWVLPGGHPEPSHVNIPDSYLTQSYEGTRDMCLTIERELYNSILMEITEEVGLRSSELFTLQLLGMVQRERDKRPVLVGHTRTTLSKSEMEARFCCQRIHTEACRILFCDIRQVETFFQENEQIMPEHRGALQLYFESSVCQQDWKLCKE” here?
**A.** soluble

**Q.** Which “soluble on expression in E. coli” value does the source give for “WYPSRPLVTTPSQADIQADQSSPRDLLEYFLSGLGETSLPVIQQQVQRYEQENQGLLIDSSLFAQYVQYKAALSELTLPQASGGLSTQEWWQLHQSLLDLQARYFSAEQQALFAEENRLRELAIEKRRIYEQYGQSEEAQRAWQALLLDQPDFIQRSEATAQLLPQLTQAGQGDTQQRYLARVALVGEQGAQRLAELDDSRATFEQQFQDYYQARAAILVRNELSASEQQTQIQQLREQHFAPEQWRRIDALERLKDN” here?
**A.** not soluble

**Q.** For “MSDTPQAILLMGPTASGKTGLALELARRFPVEIVSVDSALVYRDMDIGTAKPTAEEMAACPHHLIDVISPLQSYSAAQFHADANRLIADIQARGKLPLLVGGTMLYYKALLEGLSDLPQADAALRAELDADAALLGWPAMHARLAELDPATASRLNPNDSQRIHRALEVCLLSGKPMSELIAQGKEAAAGFRFLPLALVPRERGWLHARIAERFRIMLEQGFLDEVSRLRAKYPELTLNLPSMRCVGYRQAWEHQDGLYGHDEFVERGVAATRQLAKRQLTWTRSLDAIPVDAQRDGLAGLLGDAVDDFLAGRPPAESLRYAGDF”, which “soluble on expression in E. coli” value is on record?
**A.** soluble

**Q.** For “GAMSCIKGNVDLVFLFDGSMSLQPDEFQKILDFMKDVMKKLSNTSYQFAAVQFSTSYKTEFDFSDYVKRKDPDALLKHVKHMLLLTNTFGAINYVATEVFREELGARPDATKVLIIITDGEATDSGNIDAAKDIIRYIIGIGKHFQTKESQETLHKFASKPASEFVKILDTFEKLKDLFTELQKKIYVIEG”, which “soluble on expression in E. coli” value is on record?
**A.** soluble

**Q.** For “MVDSIIFDLDGTLWDSTEEVCKVWQDVLSEHKEIELSVTKDLFRSLMGLSFEEIANRLFPNLSEEERMNLLNECSLKECDYLSENGAKLFDDIEDTLKLLSKKYKLFIVSNCQAGYIESFLKAHKLEQYFIDFECPGNTGLHKGENNKLIIERNKLINPIYVGDTQGDANSAKFVGIPFIYAKYGFGNVDVYDYFIDSFKDLLEHDILK”, which “soluble on expression in E. coli” value is on record?
**A.** not soluble

**Q.** For “MSLTPLTGQDTPALDECVVDAVDVHAFEVPTDGPEGREQDGTLEWDATTLVLVRVHAGGRTGLGYTYGDVSVASFAHSVLGPVVKGRPVSSPPALWELMGARMRNAGRPGVGAMALSAVDVALWDLKARLLGLPLVHLLPAHHDRVPVYGSGGFTNYPLDRLTDQLAGWVRQGIGRVKLKTSRDPEADPRRLTAVRRAVGDGPEVFTDANGALGRKAALYWAHRFHDEWDVRWFEEPVASADLEGLRMLRERGPARLEITAGEYAFTAQDFANLTEGPAVDCLQADVTRCGGVTGVLEVAGLSAARHLDLSAHCAPAVSAHAFCAVRRLRHLEYFHDHVRVERLLFDGVPSPEGGALRPDTSRPGLGLEVRWADAEPYRVRGVRPPREGHHHHHH”, which “soluble on expression in E. coli” value is on record?
**A.** soluble

**Q.** With “GMEKRLDYITDLMALGPTANARTIQRRQTAHRLAIAEAWQVKPGEKILEIGCGQGDLSAVLADQVGSSGHVTGIDIASPDYGAPLTLGQAWNHLLAGPLGDRLTVHFNTNLSDDLGPIADQHFDRVVLAHSLWYFASANALALLFKNMAAVCDHVDVAEWSMQPTALDQIGHLQAAMIQGLLYAIAPSDVANIRTLITPDTLAQIAHDNTWTYTAGTIVEDPTLDDAHWEIATTNALLTELKLSTDLRDRVKPLLEAMSHNGTASLATFTGRITF” as the sequence, how does the “soluble on expression in E. coli” value read?
**A.** soluble

**Q.** With “MASGVTVNDEVIKVFNDMKVRKSSTPEEIKKRKKAVLFCLSDDKKQIIVEEAKQILVGDIGDTVEDPYTAFVKLLPLNDCRYALYDATYETKESKKEDLVFIFWAPESAPLKSKMIYASSKDAIKKKFTGIKHEWQVNGLDDIKDRSTLGEKLGGNVVVSLEGKPL” as the sequence, how does the “soluble on expression in E. coli” value read?
**A.** soluble

**Q.** With “MLKGFTPWPDELAETYRKNGCWAGETFGDLLRDRAAKYGDRIAITCGNTHWSYRELDTRADRLAAGFQKLGIQQKDRVVVQLPNIKEFFEVIFALFRLGALPVFALPSHRSSEITYFCEFAEAAAYIIPDAYSGFDYRSLARQVQSKLPTLKNIIVAGEAEEFLPLEDLHTEPVKLPEVKSSDVAFLQLSGGSTGLSKLIPRTHDDYIYSLKRSVEVCWLDHSTVYLAALPMAHNYPLSSPGVLGVLYAGGRVVLSPSPSPDDAFPLIEREKVTITALVPPLAMVWMDAASSRRDDLSSLQVLQVGGAKFSAEAARRVKAVFGCTLQQVFGMAEGLVNYTRLDDPEEIIVNTQGKPMSPYDESRVWDDHDRDVKPGETGHLLTRGPYTIRGYYKAEEHNAASFTEDGFYRTGDIVRLTRDGYIVVEGRAKDQINRGGEKVAAEEVENHLLAHPAVHDAAMVSMPDQFLGERSCVFIIPRDEAPKAAELKAFLRERGLAAYKIPDRVEFVESFPQTGVGKVSKKALREAISEKLLAGFKK” as the sequence, how does the “soluble on expression in E. coli” value read?
**A.** soluble
